Assay results reported in publication PMC13598245 (2026).
Read-outs that look alike come from different tables or passages of the source. Square brackets hold non-standard residues; d marks the D form. Ends that are not written are not given here. * marks the point of attachment. FITC = O=C1OC2(c3ccc(O)cc3Oc3cc(O)ccc32)c2ccc(NC(=S)*)cc21; pS = N[C@@H](COP(=O)(O)O)C(=O)O

T1: 14-3-3θ (purified, recombinant) (UniProt P27348 1-245)
T1 chain: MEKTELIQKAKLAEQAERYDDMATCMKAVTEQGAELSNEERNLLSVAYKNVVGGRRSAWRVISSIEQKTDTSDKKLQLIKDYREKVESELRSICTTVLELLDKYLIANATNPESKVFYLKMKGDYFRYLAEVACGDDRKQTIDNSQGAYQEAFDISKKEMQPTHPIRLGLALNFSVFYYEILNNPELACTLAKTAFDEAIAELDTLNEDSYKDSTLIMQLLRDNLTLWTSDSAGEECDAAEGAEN

T2: 14-3-3η (purified, recombinant) (UniProt Q04917 1-246)
T2 chain: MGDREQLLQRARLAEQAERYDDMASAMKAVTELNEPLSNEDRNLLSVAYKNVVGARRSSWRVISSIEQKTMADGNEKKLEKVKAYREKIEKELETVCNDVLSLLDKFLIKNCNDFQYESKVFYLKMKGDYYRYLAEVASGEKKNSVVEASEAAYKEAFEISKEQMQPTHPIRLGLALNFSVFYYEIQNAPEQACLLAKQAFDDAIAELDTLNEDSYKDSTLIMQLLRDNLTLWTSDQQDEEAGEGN


Columns and labels:
Experiment in all cases: FP
[1] = target: T1, 14-3-3θ (purified, recombinant)
[2] = target: T2, 14-3-3η (purified, recombinant)
[3] = target: T1, 14-3-3θ (purified, recombinant)
[4] = target: T2, 14-3-3η (purified, recombinant)

Kd [1]	Kd [2]	Kd [3]	Kd [4]	Binder
90.9 µM	21 µM	–	–	{FITC}-RSRTP[pS]LPTPPTR [Tau^209-221 p-S214]
–	–	10.7 µM	3.6 µM	{FITC}-RPRSR[pS]LSPGRSP [MAST1^156-168 p-S161]
–	–	23.7 µM	12.3 µM	{FITC}-DGRRW[pS]LASLPSS [MAST1^85-97 p-S90]
